Laboratory results published in PMC7616283.

Molecular target: human CCR8 (HA-tagged) on stably transfected HEK293 cells (human), P51685
Assay: flow cytometry on cells
Conditions: remark: other sources report otherwise

human CCR8 (HA-tagged) on stably transfected HEK293 cells (human), P51685, sequence (P51685 whole entry): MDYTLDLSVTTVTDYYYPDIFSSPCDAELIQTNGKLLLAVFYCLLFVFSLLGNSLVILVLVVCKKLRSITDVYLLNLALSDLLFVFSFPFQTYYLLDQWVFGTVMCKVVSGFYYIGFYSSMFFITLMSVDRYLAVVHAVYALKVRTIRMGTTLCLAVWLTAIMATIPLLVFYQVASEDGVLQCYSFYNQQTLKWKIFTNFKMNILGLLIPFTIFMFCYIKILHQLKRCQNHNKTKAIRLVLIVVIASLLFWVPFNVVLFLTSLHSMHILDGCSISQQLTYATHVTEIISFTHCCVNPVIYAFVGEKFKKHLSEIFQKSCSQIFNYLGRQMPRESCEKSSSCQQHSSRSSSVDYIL

IC50: 4.1 nM
B1: unlabeled human recombinant CCL18, P55774 21-89 (ligand)
chain: AQVGTNKELCCLVYTSWQIPQKFIVDYSETSPQCPKPGVILLTKRGRQICADPNKKWVQKYISDLKLNA
